The nature of the data set: yeast display, Sf9 membrane polyspecificity reagent, FACS + sequencing; frameworks hold sequencing errors. In outline:
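Nanobodies from a synthetic yeast display library (Saccharomyces cerevisiae BJ5465), induced 36–48 hours with galactose, were stained 1 hour at 4 °C with 10% biotinylated, detergent-solubilized Sf9 membrane reagent, enriched on streptavidin microbeads, then FACS-sorted. Anti-HA (expression) and streptavidin (reagent binding) fluorescence set low and high (top ~1%) gates. Polyreactivity labels come from the gate of origin. Genes were colony-PCR amplified, MiSeq 2 × 250 sequenced and filtered by CDR length.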
Regarding “QVQLVESGGGLVQAGGRLRLTCAASGLTFYSYAMRCYRQAPAKERELVAAISWTGGSTYYADSEKGRFTISRDNAKNTVYLQMNSLKPEDTAVYYCAAVDYWVSGDYYWGQGTQVTVSS”, the “polyreactivity (PSR sort gate)” value is “high polyreactivity”.

Consider “QVQLVESGGGLVQAGGRLRVSCAASGFTFNCYTMGGSRQAPGKERELVAAITWSGGSTYYADSVKGRFTISRDNAKNSVYLQMNSLIPEDTAVYYCAVYPYGSQYYALDYWGQGTQVTVSS”, for which the “polyreactivity (PSR sort gate)” value is reported as “high polyreactivity”.

As for “QVQLVESGGGLVQAGGRLRVSCAASGSTFAWYAMGWYRQAPGKERELVAAISSGGRTYYADSVKGRFTISRDNAKNTVDLQMNSLKREDTAVFSCNADDWAYGMDYWGQGSQVTVSS”, the “polyreactivity (PSR sort gate)” value is “low polyreactivity”.

Consider “QVQLVESGGGLVQAGGRLSLSCAASGRTFYRYAMGWYRQAPGKDRELVAAISTRGGTTYYADSVKGRFTFSRDNAKNSVYLQMNSLKPEDTAVYYCAADSVYAEYDSWGQGTQVTVSS”, for which the “polyreactivity (PSR sort gate)” value was “low polyreactivity”.

As for “QVQLVESGGGLVQAGGRLSLSCAASGSIFLYYAMGWYRQAPGKEREFVADISRSGGSTYYADSVKGRFTISRDNAKNTVYLQMNSLKPEDTAVYYCAASFYRYFVSLCYDYWGQGTQVSVSS”, the “polyreactivity (PSR sort gate)” value is “high polyreactivity”.

Consider “QVQLVESGGGLVQAGGRLSLSCAASGSIFRPNPMGWYRQAPGKERELVAAITWSGDSTYYADSVKGRFTISRDNAKNTVYLKMNSLKPEDTAVYYCAADFTYQGSSANDYWGQGTQVTVSS”, for which the “polyreactivity (PSR sort gate)” value is on record as “low polyreactivity”.

For the sequence “QVQLVESGGGLVQAGGRLSLSCSASGSIFEQKAMGWYRKAPGKEREFVATISDGGGTYYADSVKGRFTISRDNAKNTVYLQINSLKPEDNAVYYCAATFGGSVFVYDYWGQGTQVTLSS”, the “polyreactivity (PSR sort gate)” value is “low polyreactivity”.

Regarding “QVQLVESGGGLVQAGGSFRLSCAASGSIFVVYDMGCYRQAPGKERELVAAITSGGSTYYADSVKGRFTISRDNAKNTVYLQMNSLKPEDTAVYYCAADSYEGYDYWGQGTQVTVSS”, the “polyreactivity (PSR sort gate)” value is “low polyreactivity”.

Consider “QVQLVESGGGLVQAGGSGRLSCAASGRIFAGYAMGWYIQAPGKERELVAAISSSGGSTYYSDSVKGRFTISRDNAKNSVYLQMNSLKPEDTAVYYCADRGKRNTPQRFYYWGQGTQVTVSS”, for which the “polyreactivity (PSR sort gate)” value was “high polyreactivity”.

“QVQLVESGGGLVQAGGSHGLSCAASGRTFYYYAMGWYRPAPGKERELVAAITSGGRTYYADSVKGRFTISRDNAKNTDYLQMNRLKPEDTAVYYCAADLSDPDWSRYQWDMDYWGQGTQVTVSS”: the “polyreactivity (PSR sort gate)” value was “low polyreactivity”.

Consider “QVQLVESGGGLVQAGGSHPLSCAASGRTFGHNAMRSYRQAPGKERELVAAITRSGGRTFYADSVKGRFTISRDNAMNTVYLQMNSLKPEDTAVFYCATDYYRYRDYAYYWLDYNYWGQGTQVTVSS”, for which the “polyreactivity (PSR sort gate)” value was “high polyreactivity”.

In the case of “QVQLVESGGGLVQAGGSHRISCAASGRTLPSYAMGWYRQAPGKERELVAAISYSGASTYYADSVKGRFTISRDNAKNTVYLQMNSLKPQDTAVYYCAVYRTFRYRYDSWGQGTQVTVSS”, the “polyreactivity (PSR sort gate)” value is “high polyreactivity”.

As for “QVQLVESGGGLVQAGGSHRLRCAASGRIFHVYAMGWYRQAPGKERELVAAISSGDRTYYADSVKGRFIISRDNAKNTVYLQMISLKPEDTAVYYCWRYPADESNYWGQGTQVTVSS”, the “polyreactivity (PSR sort gate)” value was “low polyreactivity”.

For the sequence “QVQLVESGGGLVQAGGSHRLRCADSGFTFYSNAMGCYRQAPGKERELVASITWSGGNTYYADSVKGRFTISRDKAKTTVYLQMNSLKPEDTAVYYCAAGYSRDVQGYARAYRFYYWGQGTQVTVSS”, the “polyreactivity (PSR sort gate)” value was “high polyreactivity”.

Consider “QVQLVESGGGLVQAGGSHRLSCAASARILYRNAMGRYRQAPGKERELVAAITTRGTSTYYADSVKGRFTISRDNANNTVYLQMNSLKPEDTAVYYCNKVTRDLTQGYDYWGQGTQVTVSS”, for which the “polyreactivity (PSR sort gate)” value is “high polyreactivity”.

Consider “QVQLVESGGGLVQAGGSHRLSCAASGFIFVRNAMGWYRQAPGKERELVAAISSSGGSTNYADSVKGRFTISRDNAKNTVYLQMNSLKPEDTAVYYCNVVTFRYYYKYGYWGQGTQVTVSS”, for which the “polyreactivity (PSR sort gate)” value was “high polyreactivity”.

With “QVQLVESGGGLVQAGGSHRLSCAASGFTFVNNALGWYRQPPGKEREFVAPISSDGGSTYYADSVKGRFTMSRDNAKNTVYLQMNSLKPEDTAVYYCAKVYPYRTYDTSYYHYHYDSWGQGTQVTVSS”, the “polyreactivity (PSR sort gate)” value is “low polyreactivity”.

As to “QVQLVESGGGLVQAGGSHRLSCAASGFTFVTYAMGWYRQAPGKERELVATISWGGGGTYYADSVKGRFTMSRDNAKNTVYFQLNSLKPEDTAVYYCAADNCYHYNFDYWGQGTQVTVSS”, the “polyreactivity (PSR sort gate)” value is “low polyreactivity”.

For “QVQLVESGGGLVQAGGSHRLSCAASGGIFYFNAMGWYRQAPGKERELVASITWSGGNTYYADSVKGRFTISRDNAKNTVYLQMNSLKPEDTAVYYCAADTQEYRPTYDYWGQGTQVTVSS”, the “polyreactivity (PSR sort gate)” value is on record as “low polyreactivity”.

Take “QVQLVESGGGLVQAGGSHRLSCAASGIIFWRYAMGWYRQAPGKERELVAGITSRGGSTYYADSVKGRFTISRDNAKNTVYLQMNSLKPEDTAVYFCNADWFGQLWWGVDYWGQGTQVTVSS”: the “polyreactivity (PSR sort gate)” value is recorded as “high polyreactivity”.

“QVQLVESGGGLVQAGGSHRLSCAASGIILYHYAMGWYRQAPGKERELVATITSGGSTNYADSVKGRFTISRDYAKNTVDLQMNSLKPEDTAVYYCAAVPSRYGRYRYYYWGQGTQVTVSS”: the “polyreactivity (PSR sort gate)” value is “high polyreactivity”.

As to “QVQLVESGGGLVQAGGSHRLSCAASGIIYYYNTMGWYRQAPGKEREFVAAISNSGGRTYYADSVKGRFTISRDNAKNTVYLQMNSLKPEDTAVYYCAARYVLFSNRFDYWGQGTQVTVSS”, the “polyreactivity (PSR sort gate)” value is reported as “high polyreactivity”.

In the case of “QVQLVESGGGLVQAGGSHRLSCAASGITFTGYGMGWYRQAPGKERELVAAIRLRTGSTYFADSVKGRFTISRDNAKNTVYLQMNSLKPEDTAVYYCNKVTVYRFRGVSWGQGTQVTVSS”, the “polyreactivity (PSR sort gate)” value is reported as “high polyreactivity”.

Turning to “QVQLVESGGGLVQAGGSHRLSCAASGITFYWYAMGWYRQAPGKERELVAAITRSVGSTYYADSVKGRFTISRDNAKNTVYLQMNSLKPEDTAVYYCAADFYYYGFDYWGQGTQVTVSS”, the “polyreactivity (PSR sort gate)” value is listed as “low polyreactivity”.

On to “QVQLVESGGGLVQAGGSHRLSCAASGRIFEDYAMGWYRQAPGKERELVARISSGDSTNYADSVNGRFTLSRDNAKNTVYLQMNSLKPEDTAVYYCAAEGGVQEFDYWGQGTQVTVSS”, for which the “polyreactivity (PSR sort gate)” value is on record as “low polyreactivity”.

On to “QVQLVESGGGLVQAGGSHRLSCAASGRIFSTYAMGWYRQAPGKERELVAAINKIGGSTYYADSVKGRFTISRDNAKNNVYLQMNSLKPEDTAVDYCAADAPHYPVRRYYYWGQGTQVTVSS”, for which the “polyreactivity (PSR sort gate)” value was “low polyreactivity”.

For “QVQLVESGGGLVQAGGSHRLSCAASGRIFVGYTMGWYRQAPGKERELVAAITSGGSTYYADSVKGRFTISRDNAKNTVYLQMNSLNPEDTAVYYCNAAYQFDSYHLGGYGYEYWGQGTQVTVSS”, the “polyreactivity (PSR sort gate)” value is reported as “low polyreactivity”.

For the sequence “QVQLVESGGGLVQAGGSHRLSCAASGRIFVKYAMGWYRQAPGKERELVAAITKSGSSTYYADSVKGRFTISRDNAKITVYLQMNSLKPEDTAVYYCAALTISRSRTGYYWGQGTQVTVSS”, the “polyreactivity (PSR sort gate)” value is recorded as “low polyreactivity”.

For “QVQLVESGGGLVQAGGSHRLSCAASGRINYNYAMGWYRQAPGKERELVAAISGSGGSTYYADSVKARFTISRDNAKNTVYLQMNSLKPEDTAVYYCSTSGPQYDSRNFDYWGQGTQVNVSS”, the “polyreactivity (PSR sort gate)” value is given as “low polyreactivity”.

For the sequence “QVQLVESGGGLVQAGGSHRLSCAASGRTFKGNAMGWYRQAPGQERELVAAISSRGGRTFYADSVKGRYTISRDNAKNTVYLQMNSLKPDDTAVYDCAAYSPLTKTPDSPVRYDYWGQGTQVTVSS”, the “polyreactivity (PSR sort gate)” value is “high polyreactivity”.

On to “QVQLVESGGGLVQAGGSHRLSCAASGRTFPFYAMGWYRQAPGTERELVADITSSGGSTYYADSVKGRFTISRDNAKNTVYLQMNSLKPEDSAVYYCAADPIDISYWEFDYWGQGTQVTVSS”, for which the “polyreactivity (PSR sort gate)” value is “low polyreactivity”.

“QVQLVESGGGLVQAGGSHRLSCAASGRTFRYNAMGWYRQATGKERELVAAISTRGGSTYYADSVKGRFTISRDNAKNTVYLQMNSLKPEDTAVYYCATKVYSSRYRGYGYWGQGTQVTVSS”: the “polyreactivity (PSR sort gate)” value is listed as “high polyreactivity”.

As for “QVQLVESGGGLVQAGGSHRLSCAASGRTFSGYAMGWYRQAPGKERELVAAISFSGGSTYYADSVKGRFTISRDNAKNTVYLQMNSLKPEDTAVYYCAAEFVRQNYEMDYWGQGTQVTVSS”, the “polyreactivity (PSR sort gate)” value is “low polyreactivity”.

For “QVQLVESGGGLVQAGGSHRLSCAASGRTFSYNAMGWYRQAPGKERELVASITSSGGGTSYADSVKGRFTISRDNAKNTVYLQMNSLKPEDTAVYYCNRVLPHPDGYGVGARGYWGQGTQVTVSS”, the “polyreactivity (PSR sort gate)” value is on record as “high polyreactivity”.

In the case of “QVQLVESGGGLVQAGGSHRLSCAASGRTFSYYAMGWYRQAPGKEREMDADISKSGGRTYYADSLKGRFTISRDNAKNTVYLQMNSLKPEDTAVYYCAAGFYWAVYYSVDYWGQGTQVTVSS”, the “polyreactivity (PSR sort gate)” value was “high polyreactivity”.

As for “QVQLVESGGGLVQAGGSHRLSCAASGRTFYRNAMGWYRPAPGKERELVAAITSGGGTTYADSVKGRFTISRDNAKNTVYLQMNSLKPEDTAVYYCAKRYNGRFRLGYEYWGQGTQVTVSS”, the “polyreactivity (PSR sort gate)” value is recorded as “high polyreactivity”.

Regarding “QVQLVESGGGLVQAGGSHRLSCAASGSIFNRYAMGWYRQAPGKERELVAAITAGGSSTYYADSVKGRFTISRDNAKNTVYLQMNSLKPEDTAVYYCNAVWWHPKDYDYWGQGTQVTVSS”, the “polyreactivity (PSR sort gate)” value was “low polyreactivity”.

In the case of “QVQLVESGGGLVQAGGSHRLSCAASGSIFQSYAMGWYRQAPGKERELVAAIDRSGTSTYYADSVKGRFTISRDNAKNTVYLQMNSLKPEDTAVYYCNTLRRSWQMDYWGQGTQVTVSS”, the “polyreactivity (PSR sort gate)” value is “low polyreactivity”.

As for “QVQLVESGGGLVQAGGSHRLSCAASGSIFRGYAMGWSIQAPGKERELVAAISWRGTSTYYADSVKGRFTISRDNAKNTVYLQMNSLKPEDTAVYYCAADLDGDYYYYGQGNDYWGQGTQVTVSS”, the “polyreactivity (PSR sort gate)” value is recorded as “low polyreactivity”.

On to “QVQLVESGGGLVQAGGSHRLSCAASGSIFSTYAMGWYRQAPGKERELVAAITSDGTYADSVKGRFTISRDNARNTVYLQMNSLKPEDTAVYYCAAYYPYTRHGDYWGQGTQVTVSS”, for which the “polyreactivity (PSR sort gate)” value was “low polyreactivity”.

Regarding “QVQLVESGGGLVQAGGSHRLSCAASGSIFYKNAMGWYRQAPGKERELVAAITKRGGTTYYADSVKGRFTISRDNAKNTVYLQMNSLKPEDTAVYYCAKYLGPASIVRYEYWGQGTQVTVSS”, the “polyreactivity (PSR sort gate)” value was “high polyreactivity”.
